Results published in US20190284246A1.

Assays:
[1] = target: ΔN28-CofB (enterotoxigenic Escherichia coli (ETEC)); experiment: ITC, peptide titrated into ΔN28-CofB
[2] = target: ΔN28-CofB (enterotoxigenic Escherichia coli (ETEC)); experiment: ITC
[3] = target: ΔN28-CofB (enterotoxigenic Escherichia coli (ETEC)); experiment: ITC, CofJ titrated into ΔN28-CofB, 25° C.

Row | Substance | Kd [1] [nM] | fold stronger binding affinity than CofJ to ΔN28-CofB [2] [fold] | Kd [3] [nM]
1 | CofJ^1-24 peptide | 4000 | – | –
2 | CofJ^1-24-GCN4 inhibitory peptide (designed binder) | 40 | 5 | –
3 | secretory protein CofJ | – | – | 200
4 | CofJ^4-16-GCN4 inhibitory peptide (designed binder) | 80 | 2.5 | –
5 | CofJ^4-16 peptide | 4000 | – | –
